Data as given in patent US20260116920A1, “HUMAN TRANSFERRIN RECEPTOR BINDING PEPTIDE” (PEPTIDREAM INC., priority 2021, published 2026).
Starred links: 1 amine or outer side, 2 acyl side, 3 side chain; linkers in the order of their positions; H or OH if unused. Positions of bridges follow the written chain, without caps; N, C: chain ends. Non-standard residues stand in square brackets, D forms with d. Residues, ends and D or L forms follow the SMILES beside them. E(PEG8Me) = (S)-30-amino-27-oxo-2,5,8,11,14,17,20,23-octaoxa-26-azahentriacontane-31-oic acid, COCCOCCOCCOCCOCCOCCOCCOCCNC(=O)CC[C@H](N[*:1])C(=O)[*:2]; Qpipzaa = (S)-2-amino-5-(4-(carboxymethyl)piperazin-1-yl)-5-oxopentanoic acid, O=C(CC[C@H](N[*:1])C(=O)[*:2])N1CCN(CC(=O)[*:3])CC1; F4aao = (S)-2-amino-3-(4-(carboxymethoxy)phenyl)propanoic acid, O=C([C@H](Cc1ccc(OCC(=O)[*:3])cc1)N[*:1])[*:2]; Trp(1-CH2CO) = O=C([C@H](Cc1cn(CC(=O)[*:3])c2ccccc12)N[*:1])[*:2]; Phe(3-COOH) = N[C@@H](Cc1cccc(C(=O)O)c1)C(=O)O; NMePhe(3-Cl) = CN[C@@H](Cc1cccc(Cl)c1)C(=O)O; 3Pal(6-NH2) = Nc1ccc(C[C@H](N)C(=O)O)cn1; PEG8 = NCCOCCOCCOCCOCCOCCOCCOCCOCCC(=O)O; Lys(N3) = [N-]=[N+]=NCCCC[C@H](N)C(=O)O; NMe3Pal = CN[C@@H](Cc1cccnc1)C(=O)O; NMeY = CN[C@@H](Cc1ccc(O)cc1)C(=O)O; 3Pal = N[C@@H](Cc1cccnc1)C(=O)O; 4Pal = N[C@@H](Cc1ccncc1)C(=O)O; PEG4 = NCCOCCOCCOCCOCCC(=O)O

Each compound was assayed against T1, human transferrin receptor (hTfR) (Homo sapiens, UniProt P02786) (assay: Evaluation of molecular interaction between transferrin receptor (hTfR) and peptide using surface plasmon resonance (SPR)). Settings: KD class for binding to hTfR by SPR; peptide with the linker shown in the same line; 'low signal indicates no activity'.
T1 construct: made in house
T1 sequence (P02786 89-760 limits assumed): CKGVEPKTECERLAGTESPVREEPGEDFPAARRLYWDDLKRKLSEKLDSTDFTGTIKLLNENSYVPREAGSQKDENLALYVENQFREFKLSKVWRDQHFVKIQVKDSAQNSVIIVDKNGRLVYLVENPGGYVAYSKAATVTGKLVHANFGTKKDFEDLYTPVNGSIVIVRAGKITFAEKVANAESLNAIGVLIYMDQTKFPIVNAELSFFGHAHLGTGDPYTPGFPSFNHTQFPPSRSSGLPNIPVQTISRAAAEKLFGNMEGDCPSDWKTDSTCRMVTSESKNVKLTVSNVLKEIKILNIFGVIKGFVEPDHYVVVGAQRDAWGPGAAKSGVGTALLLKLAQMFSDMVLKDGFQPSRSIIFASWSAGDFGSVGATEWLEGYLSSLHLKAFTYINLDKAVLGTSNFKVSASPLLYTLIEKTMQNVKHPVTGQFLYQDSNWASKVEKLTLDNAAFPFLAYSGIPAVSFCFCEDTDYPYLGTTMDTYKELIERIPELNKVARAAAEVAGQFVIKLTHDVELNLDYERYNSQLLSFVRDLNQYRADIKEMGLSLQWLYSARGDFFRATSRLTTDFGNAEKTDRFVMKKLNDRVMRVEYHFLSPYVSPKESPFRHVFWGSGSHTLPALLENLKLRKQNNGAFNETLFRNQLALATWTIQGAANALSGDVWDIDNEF
Format: binding
Procedure: Evaluation Test of Molecular Interaction Between Transferrin Receptor (hTfR) and Peptide Using Surface Plasmon Resonance (SPR)
The intermolecular interactions of various synthesized peptides with the transferrin receptor (hTfR) by surface plasmon resonance (SPR) of the peptides were tested by the methods described below. Specific test methods are shown below.
NTA sensor chip (Global Life Sciences Technologies Japan K.K.) was inserted into BiacoreT200 (Global Life Sciences Technologies Japan K.K.), then the priming operation was performed three times by using running buffer containing: 10 mM HEPES pH 8.0 (Nacalai Tesque, Inc.), 150 mM NaCl (Nacalai Tesque, Inc.), 0.05% Tween 20 (Nacalai Tesque, Inc.), 0.1% BSA (SIGMA-ALDRICH) and 1.0% DMSO (FUJIFILM Wako Pure Chemical Corporation), and equilibrated at a flow rate of 30 μL/min. 350 mM EDTA solution was reacted at a flow rate of 10 μL/min for 60 seconds, 0.5 mM […] solution (Kishida Chemical Co., Ltd.) was reacted at a flow rate of 10 μL/min for 60 seconds, and then the NTA sensor chip was washed with 3 mM EDTA solution (Nacalai Tesque, Inc.) at a flow rate of 10 μL/min for 60 seconds. After mixing 50 μL each of 60 mM EDC solution (Global Life Science Technologies Japan K.K.) and 650 mM NHS solution (Global Life Science Technologies Japan K.K.), the reaction was carried out at a flow rate of 10 μL/min for 420 seconds. 150 μL of 0.5 μM hTfR dimer solution was prepared by dilution with running buffer and reacted at a flow rate of 10 μL/min for 300 seconds to immobilize hTfR on the NTA sensor chip. For the human transferrin receptor (hTfR), recombinant hTfR described in Example 2 of WO2018/124121 was used. After immobilization, capping was performed by reacting with 1.0 M ethanolamine solution (Global Life Sciences Technologies Japan K.K.) at a flow rate of 10 μL/min for 420 seconds. Peptide lysate prepared in DMSO solution to 10 mM was diluted with running buffer to be a final concentration of 10 μM peptide lysate, then peptide solutions of 100 nM, 50 nM, 25 nM, 10 nM, and 5 nM were prepared. Using the above samples, the kinetics of the peptide against hTfR was obtained by SPR measurement.
The kinetic evaluation model was single-cycle kinetics, and curve fitting was performed using Biacore T200 Evaluation Software Version 3.0 (Global Life Science Technologies Japan K.K.). The binding of the peptide to hTfR was evaluated by performing curve fitting on the obtained sensorgram by least squares method and obtaining the KD value.
“894_0385 ({CH2CO}-AV[NMePhe(3-Cl)]V[Trp(1-CH2CO)]NY[F4aao]II[Qpipzaa][Qpipzaa]F[NMeY]C-NH2; thioether N-15; also: linker PEG4c, place not given here)” was tested, and the SPR was “Low signal”. “894_3181 (AVFVWNYFIIEEFYC; cyclised or stapled)” was tested, and the SPR was “Low signal”. For “894_3183 ({CH2CO}-AV[NMePhe(3-Cl)]V[Trp(1-CH2CO)]NY[F4aao]II[E(PEG8Me)][E(PEG8Me)]F[NMeY]CG[PEG8][Lys(N3)]-NH2; thioether N-15; SMILES CC[C@H](C)[C@@H]1NC(=O)[C@H](Cc2ccc(OCC(=O)O)cc2)NC(=O)[C@H](Cc2ccc(O)cc2)NC(=O)[C@H](CC(N)=O)NC(=O)[C@H](Cc2cn(CC(=O)O)c3ccccc23)NC(=O)[C@H](C(C)C)NC(=O)[C@H](Cc2cccc(Cl)c2)N(C)C(=O)[C@H](C(C)C)NC(=O)[C@H](C)NC(=O)CSC[C@@H](C(=O)NCC(=O)NCCOCCOCCOCCOCCOCCOCCOCCOCCC(=O)N[C@@H](CCCCN=[N+]=[N-])C(N)=O)NC(=O)[C@H](Cc2ccc(O)cc2)N(C)C(=O)[C@H](Cc2ccccc2)NC(=O)[C@H](CCC(=O)NCCOCCOCCOCCOCCOCCOCCOCCOC)NC(=O)[C@H](CCC(=O)NCCOCCOCCOCCOCCOCCOCCOCCOC)NC(=O)[C@H]([C@@H](C)CC)NC1=O)”, the SPR was “Low signal”. With “894_3184 ({CH2CO}-AV[NMePhe(3-Cl)]V[Trp(1-CH2CO)]NY[F4aao]II[E(PEG8Me)][E(PEG8Me)][Phe(3-COOH)][NMeY]CG[Lys(N3)]-NH2; thioether N-15; SMILES CC[C@H](C)[C@@H]1NC(=O)[C@H](Cc2ccc(OCC(=O)O)cc2)NC(=O)[C@H](Cc2ccc(O)cc2)NC(=O)[C@H](CC(N)=O)NC(=O)[C@H](Cc2cn(CC(=O)O)c3ccccc23)NC(=O)[C@H](C(C)C)NC(=O)[C@H](Cc2cccc(Cl)c2)N(C)C(=O)[C@H](C(C)C)NC(=O)[C@H](C)NC(=O)CSC[C@@H](C(=O)NCC(=O)N[C@@H](CCCCN=[N+]=[N-])C(N)=O)NC(=O)[C@H](Cc2ccc(O)cc2)N(C)C(=O)[C@H](Cc2cccc(C(=O)O)c2)NC(=O)[C@H](CCC(=O)NCCOCCOCCOCCOCCOCCOCCOCCOC)NC(=O)[C@H](CCC(=O)NCCOCCOCCOCCOCCOCCOCCOCCOC)NC(=O)[C@H]([C@@H](C)CC)NC1=O)” the SPR was “Low signal”.

Same assay, conditions: KD class for binding to hTfR by SPR; peptide with the linker shown in the same line; 'low signal indicates no activity'; read-out: SPR
Compound CC[C@H](C)[C@@H]1NC(=O)[C@H](Cc2ccc(OC)cc2)NC(=O)[C@H](Cc2ccc(O)cc2)NC(=O)[C@H](CC(N)=O)NC(=O)[C@H](Cc2c[nH]c3ccccc23)NC(=O)[C@H](C(C)C)NC(=O)[C@H](Cc2cccc(Cl)c2)N(C)C(=O)[C@H](C(C)C)NC(=O)[C@H](C)NC(=O)CSC[C@@H](C(=O)NCCOCCOCCOCCOCCC(N)=O)NC(=O)[C@H](Cc2ccc(O)cc2)N(C)C(=O)[C@H](Cc2ccc(O)cc2)NC(=O)[C@H](CCCNC(=N)N)NC(=O)[C@H](CCCCN)NC(=O)[C@H]([C@@H](C)CC)NC1=O [894_0292] has a Kd of 1 to 100 nM. Compound CC[C@H](C)[C@@H]1NC(=O)[C@H](Cc2ccc(OC)cc2)NC(=O)[C@H](Cc2ccc(O)cc2)NC(=O)[C@H](CC(N)=O)NC(=O)[C@H](Cc2c[nH]c3ccccc23)N(C)C(=O)[C@H](C(C)C)NC(=O)[C@H](Cc2cccc(Cl)c2)N(C)C(=O)[C@H](C(C)C)NC(=O)[C@H](C)NC(=O)CSC[C@@H](C(=O)NCCOCCOCCOCCOCCC(N)=O)NC(=O)[C@H](Cc2ccc(O)cc2)N(C)C(=O)[C@H](Cc2ccc(O)cc2)NC(=O)[C@H](CCCNC(=N)N)NC(=O)[C@H](CCCNC(=N)N)NC(=O)[C@H]([C@@H](C)CC)NC1=O [894_0293] has a Kd of 1 to 100 nM. In the case of CC[C@H](C)[C@@H]1NC(=O)[C@H](Cc2cccnc2)NC(=O)[C@H](Cc2ccc(N)nc2)NC(=O)[C@H](CC(N)=O)NC(=O)[C@H](Cc2c[nH]c3ccccc23)NC(=O)[C@H](C(C)C)NC(=O)[C@H](Cc2cccnc2)N(C)C(=O)[C@H](C(C)C)NC(=O)[C@H](C)NC(=O)CSC[C@@H](C(=O)NCCOCCOCCOCCOCCC(N)=O)NC(=O)[C@H](Cc2ccc(O)cc2)N(C)C(=O)[C@H](Cc2ccncc2)NC(=O)[C@H](CCCNC(=N)N)NC(=O)[C@H](CCCNC(=N)N)NC(=O)[C@H]([C@@H](C)CC)NC1=O [894_0321] ({CH2CO}-AV[NMe3Pal]VWN[3Pal(6-NH2)][3Pal]IIRR[4Pal][NMeY]C[PEG4]-NH2; thioether N-15), the Kd is reported as 1 to 100 nM.
